For experiment [1], the target named is T1, monoclonal antibody (RITUXAN, manufactured by Zenyaku Kogyo Co., Ltd.).
T1 construct: That tie rests on the trade name; also called rituximab
Briefly: affinity chromatography on the FcR9_F-immobilized gel column; equilibration 20 mM acetate, 50 mM NaCl, pH 5.0; elution by pH gradient to 10 mM glycine-HCl pH 3.0; 0.6 mL/min; A280. How it is done:
(4) Five microliters of a monoclonal antibody (RITUXAN, manufactured by Zenyaku Kogyo Co., Ltd.), which was diluted with phosphate buffered saline (PBS) (pH 7.4) to yield a concentration of 1.0 mg/mL, was added at a flow rate of 0.6 mL/min.
(5) Washing was performed with the equilibration buffer for 2 minutes while the flow rate was maintained at 0.6 mL/min. Subsequently, a monoclonal antibody adsorbed was eluted with a pH gradient of 10 mM glycine-HCl buffer (pH 3.0) (i.e., a gradient in which 10 mM glycine-HCl buffer (pH 3.0) accounts for 100% in 28 minutes).

Experiment [2] concerns the target T2, IgG1 (manufactured by Sigma-Aldrich).
T2 construct: Analyte in the SPR assay, diluted in HBS-EP; also called IgG1 antibody
Briefly: SPR (Biacore T100), Fc-binding protein amine-coupled to CM5, IgG1 as analyte. On the procedure: (7) IgG1-binding ability of each Fc-binding protein collected as the elution fraction in (6) was evaluated using the surface plasmon resonance method. Upon measurement of the binding ability using the surface plasmon resonance method, Biacore T100 (manufactured by GE Healthcare) was used as a measurement system, Sensor Chip CM5 (manufactured by GE Healthcare) was used as a sensor chip, and Biacore T100 Evaluation Software (manufactured by GE Healthcare) was used as analysis software.
(8) A solution prepared by diluting IgG1 (manufactured by Sigma-Aldrich) with HBS-EP (manufactured by GE Healthcare) was supplied to a sensor chip on which each Fc-binding protein was separately immobilized using an Amine Coupling Kit (manufactured by GE Healthcare), thereby obtaining a sensorgram. Curve fitting was performed based on the sensorgram so as to calculate IgG1-binding ability.
In general terms: SPR reads the build-up and loss of mass on a sensor chip optically.

T1 sequence (heavy, as listed by the source, chain 1 of 2): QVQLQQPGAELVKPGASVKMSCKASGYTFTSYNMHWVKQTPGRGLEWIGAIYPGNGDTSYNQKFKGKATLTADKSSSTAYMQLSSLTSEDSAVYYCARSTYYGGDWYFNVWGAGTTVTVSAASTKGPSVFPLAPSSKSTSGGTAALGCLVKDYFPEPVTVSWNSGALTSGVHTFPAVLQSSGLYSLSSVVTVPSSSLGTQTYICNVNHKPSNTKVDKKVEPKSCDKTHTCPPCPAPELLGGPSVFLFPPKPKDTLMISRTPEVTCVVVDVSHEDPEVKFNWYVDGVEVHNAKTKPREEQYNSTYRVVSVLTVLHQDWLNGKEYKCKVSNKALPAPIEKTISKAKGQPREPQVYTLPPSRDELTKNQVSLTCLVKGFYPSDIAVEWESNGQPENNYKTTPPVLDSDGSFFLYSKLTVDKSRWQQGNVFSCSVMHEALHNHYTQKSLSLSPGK
T1 sequence (light, as listed by the source, chain 2 of 2): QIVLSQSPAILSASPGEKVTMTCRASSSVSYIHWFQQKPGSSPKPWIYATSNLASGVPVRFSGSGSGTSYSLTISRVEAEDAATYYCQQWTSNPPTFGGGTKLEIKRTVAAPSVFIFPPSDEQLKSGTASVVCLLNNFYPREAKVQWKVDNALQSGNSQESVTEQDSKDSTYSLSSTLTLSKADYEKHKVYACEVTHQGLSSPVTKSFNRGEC

B1: FcR9_F_Cys (FcR9_F with a cysteine tag added) (receptor)
chain: MGMRTEDLPKAEVILEPQWNRVLEKDSVTLKCRGAYSPEDNSTQWFHNESLISSQASSYLIDAATVDDSGEYRCQTSLSTLSDPVQLEVHIGWLLLQAPRWEFKEGDPIHLRCHSWKNTALHKVTYLQNGKGRKYFHHNSDFYIPKATLKDSGSYSCRGLFGSKNVSSETVNITITQGCRNDTCG
notes: also called FcR9_F-immobilized gel; FcR9_F column
B1: the binding result in experiment [1] is “binds”.

B2: Fc-binding protein FcR9 (human FcγRIIIa amino acid substitution product) (receptor)
chain: KIEEAMGMRTEDLPKAEVILEPQWNRVLEKDSVTLKCRGAYSPEDNSTQWFHNESLISSQASSYLIDAATVDDSGEYRCQTSLSTLSDPVQLEVHIGWLLLQAPRWEFKEGDPIHLRCHSWKNTALHKVTYLQNGKGRKYFHHNSDFYIPKATLKDSGSYSCRGLVGSKNVSSETVNITITQGGHHHHHH
Consider B2, for which, in experiment [2], the affinity, expressed as Kd, was 77.3 nM; the koff is 0.0313 s⁻¹; the kon came out at 405000 M⁻¹ s⁻¹.

In general, Kd refers to the concentration at which binding is half-saturated. A lower Kd goes with tighter binding. As usually defined, the koff is the first-order rate constant of dissociation. In general, kon refers to the second-order rate constant of association. Higher therefore signals faster complex formation.
